Results from patent US7074761B1, “Peptides and production and use thereof” (Takeda Chemical Ind., Ltd., priority 1996, dated 2006).
Where a SMILES comes first, the peptide text is derived from it. Bridges are numbered along the chain shown (N, C = ends). Where no end group is shown, it is not given here.

Columns and labels:
[1] = target: T1, human SSTR4 (Homo sapiens, UniProt P31391); assay: [125I]-somatostatin binding inhibition, SSTR4 CHO cell membrane fraction; conditions: 25° C., 60 minutes
T1 construct: expressed in transfected cells; host or cells: CHO(dhfr-) cells, clone SSTR4-1-2, plasmid pA-1-11-SSTR4 (vector pAKKO-111)
T1 sequence (P31391 whole entry): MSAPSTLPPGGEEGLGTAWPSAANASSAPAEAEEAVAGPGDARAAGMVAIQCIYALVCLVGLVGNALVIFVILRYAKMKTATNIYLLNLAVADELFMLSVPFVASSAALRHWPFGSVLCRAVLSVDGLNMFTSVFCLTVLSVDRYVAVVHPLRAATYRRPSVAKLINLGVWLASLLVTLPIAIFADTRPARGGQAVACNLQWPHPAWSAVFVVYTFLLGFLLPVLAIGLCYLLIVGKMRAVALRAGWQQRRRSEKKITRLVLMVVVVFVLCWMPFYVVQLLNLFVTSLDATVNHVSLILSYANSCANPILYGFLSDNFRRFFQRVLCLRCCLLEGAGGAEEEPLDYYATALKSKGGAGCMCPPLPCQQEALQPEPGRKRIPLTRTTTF
Description: CHO(dhfr^−) cells (1×10^6 cells) were cultured on HAM F12 medium containing 10% fetal bovine serum in a dish with a diameter of 8 cm for 24 hours. Into these cells was introduced 10 μg of the human SSTR4 DNA expression plasmid pA-1-11-SSTR4 obtained as described above in (2) by the calcium phosphate method (Cell Phect Transfection Kit; Pharmacia). At 24 hours after transfection, the medium was exchanged for DMEM containing 10% dialyzed fetal bovine serum, and cells forming a colony on this medium (namely DHFR^+ cells) were selected. Further, the cells selected were treated by the limiting dilution method for cloning from a single cell, and the cells thus cloned were measured for their somatostatin receptor protein expression ability by the binding assay described in Reference Example 1 (3). In this manner, a cell line with high somatostatin-binding activity, SSTR4-1-2, was selected.
The human somatostatin receptor expressing CHO cell lines SSTR1-8-3, SSTR2-HS5-9, SSTR3-15-19, SSTR4-1-2 and SSTR5-32-4 (10^9 cells each) were respectively suspended in phosphate buffered physiological saline supplemented with 5 mM EDTA (PBS-EDTA) and centrifuged. To each cell pellet was added 10 ml of cell homogenation buffer (10 mM NaHCO3, 5 mM EDTA, pH=7.5), followed by homogenation with a Polytron homogenizer. The homogenate was centrifuged at 400×g for 15 minutes, and the supernatant obtained was further centrifuged at 100,000×g for 1 hour to give a membrane fraction as a precipitate. […]
(§1) The membrane fractions prepared in Reference Example 6 were each diluted to 3 μg/ml with assay buffer. […] After filtration, the radioactivity of [^125I]-somatostatin remaining on the filter paper was measured. For each test substance, the binding inhibition percentage (%) was calculated according to the formula: PBM=(B−NSB)/(B0−NSB)×100 (where PBM: percent maximum binding; B: radioactivity when the test sample is added; B0: maximum bound radioactivity; NSB: non-specifically bound radioactivity). […]

[2] = target: T2, human SSTR5 (Homo sapiens, UniProt P35346); assay: [125I]-somatostatin binding inhibition, SSTR5 CHO cell membrane fraction; conditions: 25° C., 60 minutes
T2 construct: expressed in transfected cells; host or cells: CHO(dhfr-) cells, clone SSTR5-32-4, plasmid pA-1-11-SSTR5 (vector pAKKO-111)
T2 sequence (P35346 whole entry): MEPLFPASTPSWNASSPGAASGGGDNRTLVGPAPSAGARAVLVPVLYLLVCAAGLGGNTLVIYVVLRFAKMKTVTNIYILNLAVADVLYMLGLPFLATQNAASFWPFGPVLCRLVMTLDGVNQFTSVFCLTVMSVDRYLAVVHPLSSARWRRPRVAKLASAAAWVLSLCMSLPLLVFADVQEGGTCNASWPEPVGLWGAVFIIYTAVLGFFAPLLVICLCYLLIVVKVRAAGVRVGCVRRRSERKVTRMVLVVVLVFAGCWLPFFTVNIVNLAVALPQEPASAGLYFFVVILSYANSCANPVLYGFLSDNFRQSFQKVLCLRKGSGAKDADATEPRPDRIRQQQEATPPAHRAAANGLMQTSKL
Description: CHO(dhfr^−) cells (1×10^6 cells) were cultured on HAM F12 medium containing 10% fetal bovine serum in a dish with a diameter of 8 cm for 24 hours. Into these cells was introduced 10 μg of the human SSTR5 cDNA expression plasmid pA-1-11-SSTR5 obtained as described above in (2) by the calcium phosphate method (Cell Phect Transfection Kit; Pharmacia). At 24 hours after transfection, the medium was exchanged for DMEM containing 10% dialyzed fetal bovine serum, and cells forming a colony on this medium (namely DHFR^+ cells) were selected. Further, the cells selected were treated by the limiting dilution method for cloning from a single cell, and the cells thus cloned were measured for their somatostatin receptor protein expression ability by the binding assay described in Reference Example 1 (3). In this manner, a cell line with high somatostatin-binding activity. SSTR5-32-4, was selected. […]
as §1

[3] = target: T3, human somatostatin receptor protein subtype 2 (SSTR2) (human, UniProt P30874 1-369); assay: cell-based or functional assay
T3 sequence (P30874 whole entry): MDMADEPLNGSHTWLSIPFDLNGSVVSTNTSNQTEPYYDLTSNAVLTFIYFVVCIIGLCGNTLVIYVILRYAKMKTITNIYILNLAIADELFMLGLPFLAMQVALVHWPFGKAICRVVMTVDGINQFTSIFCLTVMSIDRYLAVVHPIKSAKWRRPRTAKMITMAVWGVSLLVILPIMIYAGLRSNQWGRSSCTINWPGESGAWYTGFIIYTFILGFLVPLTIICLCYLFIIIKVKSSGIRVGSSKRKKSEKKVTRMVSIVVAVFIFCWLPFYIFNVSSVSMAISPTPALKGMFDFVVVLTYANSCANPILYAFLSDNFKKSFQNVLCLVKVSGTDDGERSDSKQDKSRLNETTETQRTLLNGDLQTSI

[4] = target: T4, human somatostatin receptor protein subtype 3 (SSTR3) (human, UniProt P32745 1-418); assay: cell-based or functional assay
T4 sequence (P32745 whole entry): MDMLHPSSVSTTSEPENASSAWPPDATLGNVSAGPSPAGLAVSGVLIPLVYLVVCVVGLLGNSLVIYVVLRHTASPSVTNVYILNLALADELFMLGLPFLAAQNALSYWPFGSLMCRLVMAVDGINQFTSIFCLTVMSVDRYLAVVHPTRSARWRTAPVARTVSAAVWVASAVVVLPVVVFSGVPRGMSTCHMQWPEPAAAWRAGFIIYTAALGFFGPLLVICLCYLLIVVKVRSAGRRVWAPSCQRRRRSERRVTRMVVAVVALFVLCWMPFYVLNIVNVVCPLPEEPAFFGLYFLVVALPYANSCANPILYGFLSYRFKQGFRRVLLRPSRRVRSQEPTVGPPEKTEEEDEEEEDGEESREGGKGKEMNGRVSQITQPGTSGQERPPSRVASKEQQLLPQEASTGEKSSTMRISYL

[5] = target: human somatostatin receptor protein subtype 4 (SSTR4) (human, UniProt P31391 1-388); assay: cell-based or functional assay
Chain of human somatostatin receptor protein subtype 4 (SSTR4) (P31391 whole entry): as the sequence (P31391 whole entry) above

[6] = target: T5, human somatostatin receptor protein subtype 5 (SSTR5) (human, UniProt P35346 1-364); assay: cell-based or functional assay
T5 sequence (P35346 whole entry): as the sequence (P35346 whole entry) above

[7] = target: T3, human somatostatin receptor protein …; assay: displacement of 200 pM [125I]-somatostatin from membrane fraction of CHO cells expressing the human receptor; filter binding, Hill plot
Description: (§2) The membrane fractions prepared in Reference Example 6 were each diluted to 3 µg/ml with assay buffer. […] After 60 minutes of reaction at 25° C., each reaction mixture was suction-filtered using a polyethyleneimine-treated Whatman glass filter (GF-B). […] For each test substance, the binding inhibition percentage (%) was calculated according to the formula:
(§3) PBM=(B-NSB)/(B_0-NSB)×100 (where PBM: percent maximum binding; B: radioactivity when the test sample is added; B_0: maximum bound radioactivity; NSB: non-specifically bound radioactivity).

[8] = target: T4, human somatostatin receptor protein …; assay: as above
Description: as §2, §3

[9] = target: T5, human somatostatin receptor protein …; assay: as above
Description: as §2, §3

[10] = target: T6, human somatostatin receptor protein subtype 1 (SSTR1) (human, UniProt P30872 1-391); assay: as above
T6 construct: whole, on cells; also called cell line SSTR1-8-3
T6 sequence (P30872 whole entry): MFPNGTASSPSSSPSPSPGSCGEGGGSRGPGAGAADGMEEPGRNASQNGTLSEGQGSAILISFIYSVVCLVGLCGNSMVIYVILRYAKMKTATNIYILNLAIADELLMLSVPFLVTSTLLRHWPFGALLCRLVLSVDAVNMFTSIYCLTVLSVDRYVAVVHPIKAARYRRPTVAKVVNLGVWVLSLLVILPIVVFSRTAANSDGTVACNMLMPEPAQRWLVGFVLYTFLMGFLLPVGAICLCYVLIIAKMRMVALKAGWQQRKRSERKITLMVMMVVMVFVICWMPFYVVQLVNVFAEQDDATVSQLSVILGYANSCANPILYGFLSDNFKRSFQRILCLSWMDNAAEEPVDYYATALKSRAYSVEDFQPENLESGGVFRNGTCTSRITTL
Description: as §2, §3

Molecule	IC50 [1]	IC50 [2]	ED50 of inhibition of forskolin-stimulated intracellular cAMP accumulation [3]	ED50 of inhibition of forskolin-stimulated intracellular cAMP accumulation [4]	ED50 of inhibition of forskolin-stimulated intracellular cAMP accumulation [5]	ED50 of inhibition of forskolin-stimulated intracellular cAMP accumulation [6]	IC50 [7]	IC50 [8]	IC50 [9]	IC50 [10]
DRMPCRNFFWKTFSSCK (disulfide 5-16) [human peptide hCS-17]			5 nM	1 nM	0.1 nM	0.2 nM	0.6 nM	0.6 nM	0.4 nM	
CRNFFWKTFSSCK (disulfide 1-12) [deletion type human peptide hCS-13]							0.3 nM	0.7 nM		6 nM

Second part, the molecule after the results:

IC50 [1]	IC50 [2]	ED50 of inhibition of forskolin-stimulated intracellular cAMP accumulation [3]	ED50 of inhibition of forskolin-stimulated intracellular cAMP accumulation [4]	ED50 of inhibition of forskolin-stimulated intracellular cAMP accumulation [5]	ED50 of inhibition of forskolin-stimulated intracellular cAMP accumulation [6]	IC50 [7]	IC50 [8]	IC50 [9]	IC50 [10]	Molecule
0.5 nM	0.5 nM									C[C@@H](O)[C@@H]1NC(=O)[C@H](CCCCN)NC(=O)[C@H](Cc2c[nH]c3ccccc23)NC(=O)[C@H](Cc2ccccc2)NC(=O)[C@H](Cc2ccccc2)NC(=O)[C@H](CC(N)=O)NC(=O)[C@H](CCCNC(=N)N)NC(=O)[C@@H](N)CSSC[C@@H](C(=O)N[C@@H](CCCCN)C(=O)O)NC(=O)[C@H](CO)NC(=O)[C@H](CO)NC(=O)[C@H](Cc2ccccc2)NC1=O [hCS-13] (H-CRNFFWKTFSSCK-OH; disulfide 1-12; N-terminus and C-terminus assumed)
		7 nM	1 nM	0.2 nM	0.2 nM	0.8 nM	0.9 nM			MPCRNFFWKTFSSCK (disulfide 3-14) [deletion type human peptide hCS-15]
